Square brackets hold non-standard residues; d marks the D form. Ends that are not written are not given here. pT = C[C@@H](OP(=O)(O)O)[C@H](N)C(=O)O

The source of these data is paper PMC5677968, “Familial STAG2 germline mutation defines a new human cohesinopathy” (NPJ Genomic Medicine, 2017).

The target in assay [1] is Myc-STAG2 p.Ser327Asn (human) (UniProt Q8N3U4). The assay can be described thus: co-IP; anti-Myc beads, lysates of HeLa Tet-On cells transfected with Myc-STAG2 WT or mutants; 3 h at 4 °C; washes with lysis buffer containing 200 mM NaCl; blots for endogenous proteins.
Assay [2] has as its target T1, STAG2(80–930)–SCC1(281–394) complex, WT (human, UniProt Q8N3U4-2 80-930; O60216 281-394).
T1 construct: STAG2 (SA2), human, residues 80-930, in pET28a; SCC1 (RAD21), human, residues 281-394, in pGEX-6p1; also called purified STAG2–SCC1 WT; SA2–SCC1 complex; source: E. coli, co-expressed, purified (Glutathione Sepharose 4B, PreScission cleavage, ion exchange, size exclusion)
T1 sequence (looked up) 1: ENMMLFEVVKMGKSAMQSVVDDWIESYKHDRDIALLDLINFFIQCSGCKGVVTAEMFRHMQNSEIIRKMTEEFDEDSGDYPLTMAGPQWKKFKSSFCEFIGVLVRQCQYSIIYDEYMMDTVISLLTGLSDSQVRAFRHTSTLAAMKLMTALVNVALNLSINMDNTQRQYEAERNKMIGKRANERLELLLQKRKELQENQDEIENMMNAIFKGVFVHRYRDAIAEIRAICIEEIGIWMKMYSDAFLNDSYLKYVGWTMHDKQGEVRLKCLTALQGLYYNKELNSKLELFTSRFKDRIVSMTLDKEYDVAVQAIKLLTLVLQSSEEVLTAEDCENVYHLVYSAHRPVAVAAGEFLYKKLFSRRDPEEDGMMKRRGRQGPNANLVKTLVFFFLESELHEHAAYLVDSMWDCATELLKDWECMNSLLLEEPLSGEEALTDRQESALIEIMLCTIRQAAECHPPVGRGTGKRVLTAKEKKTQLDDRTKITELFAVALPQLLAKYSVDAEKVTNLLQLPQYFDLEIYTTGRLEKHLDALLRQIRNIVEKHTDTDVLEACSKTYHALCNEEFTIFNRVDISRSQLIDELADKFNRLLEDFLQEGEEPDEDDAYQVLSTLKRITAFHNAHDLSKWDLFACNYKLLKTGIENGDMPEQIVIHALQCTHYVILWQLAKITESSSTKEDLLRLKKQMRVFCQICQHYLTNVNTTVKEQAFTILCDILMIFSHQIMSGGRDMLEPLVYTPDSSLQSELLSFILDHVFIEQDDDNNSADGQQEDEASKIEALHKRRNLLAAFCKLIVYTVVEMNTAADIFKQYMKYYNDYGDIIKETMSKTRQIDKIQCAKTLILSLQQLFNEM
T1 sequence (looked up) 2: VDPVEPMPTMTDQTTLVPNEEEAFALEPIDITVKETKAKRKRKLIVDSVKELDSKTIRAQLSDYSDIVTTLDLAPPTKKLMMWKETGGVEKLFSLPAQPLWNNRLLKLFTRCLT
The assay can be described thus: ITC; MicroCal iTC200, 20 °C; 20 uM STAG2(80–930)–SCC1(281–394) complex in the cell, titrated with 300 uM pSGO1 peptide; 20 mM Tris-HCl pH 7.7, 200 mM NaCl, 5 mM TCEP. The following applies: both partners purified. On the technique in general: ITC needs no label: the signal is the heat of the interaction.

For assay [3], the target named is T2, STAG2(80–930) p.Ser327Asn–SCC1(281–394) complex (human, UniProt Q8N3U4-2 80-930; O60216 281-394, p.Ser327Asn).
T2 construct: STAG2 (SA2), human, residues 80-930, patient germline variant p.Ser327Asn; SCC1 (RAD21), human, residues 281-394, in pGEX-6p1; The methods describe only the WT STAG2(80–930) vector; also called purified STAG2–SCC1 p.Ser327Asn; SA2–SCC1 p.Ser327Asn; source: E. coli, co-expressed, purified (Glutathione Sepharose 4B, PreScission cleavage, ion exchange, size exclusion)
T2 sequence (looked up) 1: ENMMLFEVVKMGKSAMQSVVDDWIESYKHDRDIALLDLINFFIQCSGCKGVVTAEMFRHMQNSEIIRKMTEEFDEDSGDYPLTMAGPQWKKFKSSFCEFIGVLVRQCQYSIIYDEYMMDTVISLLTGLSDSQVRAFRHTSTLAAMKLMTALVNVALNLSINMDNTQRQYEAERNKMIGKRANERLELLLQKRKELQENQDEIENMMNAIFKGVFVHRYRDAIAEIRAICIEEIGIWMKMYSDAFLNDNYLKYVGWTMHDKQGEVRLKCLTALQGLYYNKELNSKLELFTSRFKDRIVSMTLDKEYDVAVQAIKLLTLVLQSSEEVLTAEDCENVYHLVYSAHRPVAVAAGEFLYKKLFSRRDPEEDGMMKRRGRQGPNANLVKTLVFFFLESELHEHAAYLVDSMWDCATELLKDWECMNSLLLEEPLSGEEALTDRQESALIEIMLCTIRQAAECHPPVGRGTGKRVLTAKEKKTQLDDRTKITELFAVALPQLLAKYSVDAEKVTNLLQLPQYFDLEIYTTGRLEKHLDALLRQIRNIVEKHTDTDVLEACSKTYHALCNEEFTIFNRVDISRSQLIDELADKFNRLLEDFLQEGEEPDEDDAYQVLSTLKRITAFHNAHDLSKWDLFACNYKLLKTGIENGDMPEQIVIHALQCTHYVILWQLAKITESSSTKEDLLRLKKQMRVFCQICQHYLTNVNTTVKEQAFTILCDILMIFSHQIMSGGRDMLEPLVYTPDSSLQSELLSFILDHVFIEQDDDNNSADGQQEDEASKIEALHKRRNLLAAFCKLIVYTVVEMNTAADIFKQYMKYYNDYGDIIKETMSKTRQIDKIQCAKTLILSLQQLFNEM
T2 sequence (looked up) 2: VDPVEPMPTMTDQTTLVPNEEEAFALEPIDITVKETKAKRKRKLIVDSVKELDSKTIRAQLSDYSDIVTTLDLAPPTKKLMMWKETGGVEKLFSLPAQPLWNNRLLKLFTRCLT
Described as above. The following applies: both partners purified.

Myc-STAG2 p.Ser327Asn (human), sequence (Q8N3U4 other isoform, or with tags, fused parts or gaps p.S327N): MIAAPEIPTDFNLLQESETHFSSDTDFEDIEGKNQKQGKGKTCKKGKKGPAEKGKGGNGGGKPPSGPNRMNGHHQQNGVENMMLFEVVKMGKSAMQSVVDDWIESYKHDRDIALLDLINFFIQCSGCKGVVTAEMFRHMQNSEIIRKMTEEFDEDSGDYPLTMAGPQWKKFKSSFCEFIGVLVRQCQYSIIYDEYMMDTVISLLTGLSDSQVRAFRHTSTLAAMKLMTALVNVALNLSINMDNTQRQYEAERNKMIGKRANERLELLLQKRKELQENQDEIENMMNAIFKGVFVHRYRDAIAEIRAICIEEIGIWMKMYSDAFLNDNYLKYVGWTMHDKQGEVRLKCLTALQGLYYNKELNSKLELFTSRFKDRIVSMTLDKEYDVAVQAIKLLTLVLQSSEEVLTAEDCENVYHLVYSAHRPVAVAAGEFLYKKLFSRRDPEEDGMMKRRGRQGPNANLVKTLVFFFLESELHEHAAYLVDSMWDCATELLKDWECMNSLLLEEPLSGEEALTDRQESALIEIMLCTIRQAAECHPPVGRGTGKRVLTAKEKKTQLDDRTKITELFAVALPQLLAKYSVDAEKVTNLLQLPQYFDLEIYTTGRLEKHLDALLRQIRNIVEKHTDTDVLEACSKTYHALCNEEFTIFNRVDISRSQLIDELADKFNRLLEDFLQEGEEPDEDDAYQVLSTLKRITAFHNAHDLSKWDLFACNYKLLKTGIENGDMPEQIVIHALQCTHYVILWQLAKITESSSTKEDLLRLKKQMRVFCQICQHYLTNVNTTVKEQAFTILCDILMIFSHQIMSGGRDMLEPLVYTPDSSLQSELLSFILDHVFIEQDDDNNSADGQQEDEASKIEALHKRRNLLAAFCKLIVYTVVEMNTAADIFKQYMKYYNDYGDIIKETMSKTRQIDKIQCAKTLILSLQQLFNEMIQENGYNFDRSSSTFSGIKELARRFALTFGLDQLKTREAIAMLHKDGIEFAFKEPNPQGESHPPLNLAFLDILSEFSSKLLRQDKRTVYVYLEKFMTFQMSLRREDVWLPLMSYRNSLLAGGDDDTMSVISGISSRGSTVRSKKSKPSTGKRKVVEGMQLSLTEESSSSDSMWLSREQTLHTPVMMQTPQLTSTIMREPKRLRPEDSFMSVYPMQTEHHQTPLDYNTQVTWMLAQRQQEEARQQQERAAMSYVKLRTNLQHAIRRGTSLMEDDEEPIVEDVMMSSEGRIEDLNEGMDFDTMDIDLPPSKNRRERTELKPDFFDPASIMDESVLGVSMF

In assay [1], “endogenous SMC1 (from UniProt Q14683 1-1233) (natural protein)” showed a reduction of binding against WT of 50%.

B1: synthetic phospho-Thr346 SGO1 peptide containing residues 313–353 of human SGO1 (peptide, UniProt Q5FBB7 313-353, looked up)
peptide: KSENKKTVPQKKMHKSVSSNDAYNFNLEEGVHL[pT]PFRQKVS
notes: SGO1, human, residues 313-353; also called pSGO1; phospho-SGO1 peptide; source: synthetic peptide
A word on the Kd: it is a measure of binding affinity in units of concentration. Read a low Kd as a tighter complex. In the case of B1, the equilibrium dissociation constant (Kd) in assay [2] amounted to 0.23 µM; in assay [3] it was 0.29 µM.
